Test results as given in article PMC7987009 (bioRxiv, 2021).

Assays:
[1] = target: SARS-CoV-2 spike receptor-binding domain (RBD), wild type (SARS-CoV-2, Wuhan-Hu-1 (wild type), UniProt P0DTC2); assay: ELISA
[2] = target: SARS-CoV-2 spike HexaPro (S), prefusion-stabilized trimer (SARS-CoV-2, Wuhan-Hu-1, HexaPro design, stabilised); assay: cell-based or functional assay

B1: Nb34 (VHH)
VHH: DVQLVESGGGLVQAGGSLRLSCAASGFTFSNYVMYWGRQAPGKGREWVSGIDSDGSDTAYASSVKGRFTISRDNAKNTLYLQMNNLKPEDTALYYCVKSKDPYGSPWTRSEFDDYWGQGTQVTVSS
binding result [1]: binds

B2: Nb17 (VHH)
VHH: HVQLVESGGGLVQAGGSLRLSCAASGSIFSSNAMSWYRQAPGKQRELVASITSGGNADYADSVKGRFTISRDKNTVYPEMSSLKPADTAVYYCHAVGQEASAYAPRAYWGQGTQVTVSS
IC50 of neutralisation of the virus in vitro [2]: ~0.025 mg/L

B3: Nb105 (VHH)
VHH: HVQLVESGGGLVQAGGSLRLSCAVSGRTFSTYGMAWFRQAPGKERDFVATITRSGETTLYADSVKGRFTISRDNAKNTVYLQMNSLKIEDTAVYYCAVRRDSSWGYSRDLFEYDYWGQGTQVTVSS
binding result [1]: binds

B4: Nb20 (VHH)
VHH: QVQLVESGGGLVQAGGSLRLSCAVSGAGAHRVGWFRRAPGKEREFVAAIGASGGMTNYLDSVKGRFTISRDNAKNTIYLQMNSLKPQDTAVYYCAARDIETAEYIYWGQGTQVTVSS
binding result [1]: binds
